Data reported in PMC4581966 (Cytokine & growth factor reviews, 2015).

T1: Ebi3 subunit of mouse recombinant IL-35 (rIL-35) (mouse), O35228
T1 chain: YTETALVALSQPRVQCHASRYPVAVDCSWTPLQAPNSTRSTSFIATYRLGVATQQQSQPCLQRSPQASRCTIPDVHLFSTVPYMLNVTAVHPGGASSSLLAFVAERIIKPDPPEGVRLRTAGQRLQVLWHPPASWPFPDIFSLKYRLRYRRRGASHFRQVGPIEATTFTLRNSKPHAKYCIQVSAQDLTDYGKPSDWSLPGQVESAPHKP


Experiments:
SEC = biological target: the molecule itself; assay: SEC
[1] = biological target: T1, Ebi3 subunit of mouse recombinant IL-35 …; assay: SEC; conditions: remark: other sources report otherwise

Row | Binder | stoichiometry N (SEC) | stoichiometry N [1]
1 | IL-12p35 subunit of mouse recombinant IL-35 (rIL-35) (natural protein, UniProt P43431 23-215, looked up) RVIPVSGPARCLSQSRNLLKTTDDMVKTAREKLKHYSCTAEDIDHEDITRDQTSTLKTCLPLELHKNESCLATRETSSTTRGSCLPPQKTSLMMTLCLGSIYEDLKMYQTEFQAINAALQNHNHQQIILDKGMLVAIDELMQSLNHNGETLRQKPPVGEADPYRVKMKLCILLHAFSTRVVTINRVMGYLSSA | 2 | –
2 | Ebi3 subunit of mouse recombinant IL-35 (rIL-35), O35228 19-228 (natural protein) YTETALVALSQPRVQCHASRYPVAVDCSWTPLQAPNSTRSTSFIATYRLGVATQQQSQPCLQRSPQASRCTIPDVHLFSTVPYMLNVTAVHPGGASSSLLAFVAERIIKPDPPEGVRLRTAGQRLQVLWHPPASWPFPDIFSLKYRLRYRRRGASHFRQVGPIEATTFTLRNSKPHAKYCIQVSAQDLTDYGKPSDWSLPGQVESAPHKP | – | 2
